# Laboratory results: PMC10009750, “Development of Selective ADAMTS-5 Peptide Substrates to Monitor Proteinase Activity” (Journal of Medicinal Chemistry, 2023)
# Non-standard residues stand in square brackets, D forms with d. No end group written: not given here. Tyr(3-NO2) = N[C@@H](Cc1ccc(O)c([N+](=O)[O-])c1)C(=O)O; 2Abz = Nc1ccccc1C(=O)O
# Tests used:
# Assay type in all cases: biochemical
# [1] = biological target: T1, TS5-5 (combined catalytic and disintegrin domain of ADAMTS-5) (Homo sapiens, UniProt Q9UNA0); assay: Cleavage of FRET peptide substrates by TS5-5 in solution (activity/selectivity studies); conditions: substrate 20 μM, 37 °C
# T1 construct: ADAMTS-5 (i.e. TS5-5, residues 264–555); FLAG; made in house; host or cells: HEK293 cells (previously transfected stocks)
# T1 sequence (Q9UNA0 264-555): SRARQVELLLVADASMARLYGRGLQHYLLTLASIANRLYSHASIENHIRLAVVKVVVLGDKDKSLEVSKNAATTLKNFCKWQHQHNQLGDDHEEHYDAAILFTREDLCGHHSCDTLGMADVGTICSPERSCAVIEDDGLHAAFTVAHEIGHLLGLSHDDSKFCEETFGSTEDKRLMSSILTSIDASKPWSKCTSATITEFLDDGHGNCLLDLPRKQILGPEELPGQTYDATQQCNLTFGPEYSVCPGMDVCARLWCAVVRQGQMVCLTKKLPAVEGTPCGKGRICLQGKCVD
# Protocol: (§1) All proteinase assays were performed at 37 °C in a SpectraMax M5 spectrophotometer (Molecular Devices, San Jose, USA) using a 96-well black microplate (Greiner bio-one, Stonehouse, UK) unless otherwise stated. […] N-TIMP-3 was purified as described previously[30] and CT-1746 was a gift from Dr. Yoshifumi Itoh (Kennedy Institute of Rheumatology, University of Oxford). All analyses were carried out using Prism 9 software (GraphPad, La Jolla, CA, USA).
# To test whether active TS5-5 had been purified, three concentrations of proteinase were assayed. A solution of Abz-TESE↓SRGAIY-Dpa-KK-NH2 (22.22 μM) in freshly prepared TNC buffer with 0.02% (v/v) Brij-35 (180 μL) was added to a 96-well black microplate in triplicate for each proteinase concentration. A substrate-only background control was also added in triplicate (180 μL). The resultant solutions were incubated at 37 °C (30 min). TS5-5 proteinase in TNC buffer with 0.02% (v/v) Brij-35 (20 μL) was added to wells to give final proteinase concentrations of 80 nM, 40 nM and 20 nM. TNC buffer with 0.02% (v/v) Brij-35 (20 μL) was also added to background control wells. The change in RFU was measured at 37 °C for 1 h, with readings every 20 s. Following subtraction of background fluorescence intensity, linear regression analysis of the linear part of each curve was used to determine the cleavage rate, which was expressed as the mean ± SEM in RFU s^–1. For cases where a single concentration of TS5-5 or TS4-4 was assayed, the same procedure was used but with 0.005% (v/v) Brij-35 and using the 5-FAM-AE↓LQGRPISIAK-TAMRA substrate for TS4-4 (0.56 μM). To convert cleavage rates to nM s^–1 nM^–1, the rate in RFU s^–1 was divided by the final concentration of proteinase (nM), then divided by the gradient of the calibration curve for Abz or 5-FAM (expressed in RFU nM^–1).
# (§2) Selectivity studies are described for Abz-TESE↓SRGAIY-Dpa-KK-NH2, the library parent peptide 3, and hit peptides 18–26. A solution of Abz-TESE↓SRGAIY-Dpa-KK-NH2 (22.22 μM) in freshly prepared TNC buffer with 0.005% (v/v) Brij-35 (90 μL) was added to a 96-well clear bottom microplate (Greiner bio-one, Stonehouse, UK) in triplicate. A substrate-only background control was also added in triplicate (90 μL). The resultant solutions were incubated at 37 °C (30 min). An ADAMTS or MMP proteinase was added to substrate wells (10 μL) to give a final proteinase concentration of either 50–90 nM (TS4-4), 25–200 nM (TS5-5), 5–10 nM (MMP-2ΔC), 30 nM (MMP-9ΔC), 92 nM (MMP-1), or 3 μM (MMP-3). TNC buffer with 0.005% (v/v) Brij-35 was added to substrate-only control wells (10 μL). The relative fluorescence intensity was measured at 37 °C for 1 h with readings every 20 s. Activity was read from underneath the microplate, which was covered with a low evaporation lid. […] For each ADAMTS and MMP proteinase, the assay was performed 2–4 times. […] Final rates were expressed as a percentage of substrate cleavage by TS5-5 (mean ± SEM) or in μM s^–1 μM^–1 of proteinase.
# [2] = biological target: T2, MMP-2ΔC (catalytic domain of MMP-2) (Homo sapiens, UniProt P08253); assay: Selectivity studies: cleavage of FRET peptide substrates by MMP-2ΔC; conditions: substrate 20 μM, MMP-2ΔC 5–10 nM, TNC buffer with 0.005% (v/v) Brij-35, 37 °C; mean of 3–4 independent experiments in triplicate
# T2 construct: the catalytic domain of MMP-2, i.e., MMP-2ΔC; made in house; host or cells: HEK293 cells (previously transfected stocks)
# Protocol: as §1, §2
# [3] = system: MMP-1 (full length); assay: Selectivity studies: cleavage of the current substrate by MMP-1; conditions: substrate 20 μM, MMP-1 92 nM, up to 72 h, 37 °C; single triplicate experiment
# Protocol: as §1
# Selectivity studies are described for Abz-TESE↓SRGAIY-Dpa-KK-NH2, the library parent peptide 3, and hit peptides 18–26. A solution of Abz-TESE↓SRGAIY-Dpa-KK-NH2 (22.22 μM) in freshly prepared TNC buffer with 0.005% (v/v) Brij-35 (90 μL) was added to a 96-well clear bottom microplate (Greiner bio-one, Stonehouse, UK) in triplicate. A substrate-only background control was also added in triplicate (90 μL). The resultant solutions were incubated at 37 °C (30 min). […] The relative fluorescence intensity was measured at 37 °C for 1 h with readings every 20 s. Activity was read from underneath the microplate, which was covered with a low evaporation lid. […] Final rates were expressed as a percentage of substrate cleavage by TS5-5 (mean ± SEM) or in μM s^–1 μM^–1 of proteinase.
# T2 sequence (P08253 110-465 limits assumed, stated change not applied): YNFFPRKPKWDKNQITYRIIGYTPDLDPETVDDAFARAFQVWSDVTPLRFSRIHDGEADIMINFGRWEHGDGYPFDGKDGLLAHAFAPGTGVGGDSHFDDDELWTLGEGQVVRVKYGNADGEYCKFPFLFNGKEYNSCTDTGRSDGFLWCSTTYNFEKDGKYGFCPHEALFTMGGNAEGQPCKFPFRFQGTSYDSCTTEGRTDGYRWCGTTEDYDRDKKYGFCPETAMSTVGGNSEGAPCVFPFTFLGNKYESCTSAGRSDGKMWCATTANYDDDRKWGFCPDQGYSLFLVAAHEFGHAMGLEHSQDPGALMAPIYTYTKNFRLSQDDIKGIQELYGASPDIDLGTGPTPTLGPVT
Substance,improvement in cleavage (overall cleavage rate) by TS5-5 compared to the current substrate [1] [fold],rate of cleavage by MMP-2ΔC [2] [μM s^–1 μM^–1],cleavage by MMP-1 [3]
KY(NO2)SENESRGK(Abz)IYYKKG (K[Tyr(3-NO2)]SENESRGK(2Abz)IYYKKG) [Compound 26],~3,–,–
KY(NO2)TESESRGK(Abz)IYYKKG (K[Tyr(3-NO2)]TESESRGK(Abz)IYYKKG) [Compound 3],~4,–,–
"Abz-TESE↓SRGAIY-Dpa-KK-NH2 [current, ortho-aminobenzoyl(Abz)-TESE↓SRGAIY-N-3-[2,4-dinitrophenyl]-L-2,3-diaminopropionyl(Dpa)-KK-NH2, reference compound]",–,0.56,no cleavage was observed
